Results reported in PMC2690590, “Functional recombinant MHC class II molecules and high-throughput peptide-binding assays” (Immunome Research, 2009).

Experiments:
[1] = molecular target: DR1GrpE: DR1 α chain 1–181 and β chain 1–190 fused C-terminally to GrpE, not biotinylated (human); assay: AlphaScreen or HTRF
[2] = molecular target: DR2a (DRA*0101/DRB5*0101), biotinylated, direct LOCI assay at pH 6 (human); assay: AlphaScreen or HTRF; direct LOCI: α and biotinylated β chains refolded with peptide titration, 48 h at 18°C; streptavidin donor beads and anti-MHC-II antibody acceptor beads; half saturation (EC50) fitted to Y = Bmax*X/(KD+X) and taken as approximate KD; pH as optimised for each MHC (DR2a at pH 6)
[3] = molecular target: DR4 (DRA*0101/DRB1*0401), biotinylated, LOCI assay (human); assay: as above
[4] = molecular target: DRB1*0813: DRA*0101/DRB1*0813 (human); assay: as above
[5] = molecular target: I-E^d (mouse MHC class II) (mouse) (UniProt P01904); assay: as above
[6] = molecular target: DR2a (DRA*0101/DRB5*0101) with non-biotinylated β chain, competitive LOCI assay (human); assay: AlphaScreen or HTRF
[7] = molecular target: DR3: DRA*0101/DRB1*0301 (human); assay: AlphaScreen or HTRF; direct LOCI: α and biotinylated β chains refolded with peptide titration, 48 h at 18°C; streptavidin donor beads and anti-MHC-II antibody acceptor beads; half saturation (EC50) fitted to Y = Bmax*X/(KD+X) and taken as approximate KD; pH as optimised for each MHC (DR2a at pH 6)
[8] = molecular target: DRB3*0301: DRA*0101/DRB3*0301 (human); assay: as above
[9] = molecular target: DP401: DPA1*0103/DPB1*0401 (human); assay: as above

Row | Binder | IC50 [1] | Kd [2] | Kd [3] | Kd [4] | Kd [5] | IC50 [6] | Kd [7] | Kd [8] | Kd [9]
1 | YLFFYRKSV [TERT572Y peptide …] | 4290 nM | 2650 nM | 1590 nM | 95 nM | 322 nM |  |  |  | 
2 | IQMLKNGKKIPKVEMS [Murine β2m peptide …] | 1230 nM | 6 nM |  | 73 nM | 117 nM | 3 nM | 21 nM | 70 nM | 
3 | FLYGALLLA [MBP peptide …] | 3920 nM |  |  |  |  |  |  |  | 34 nM
